In experiment [1] the target is dipeptidyl peptidase IV (DPPIV). Put plainly: ratio of Ki for DPPIV to Ki for APCE/FAP.
The target of experiment [2] is T1, antiplasmin-cleaving enzyme (APCE) (human, UniProt Q12884 24-760, Natural plasma glycoprotein; glycans are not carried by the letters. The active enzyme is known as a homodimer; one chain is given.).
T1 construct: The range 24-760 is derived from the statement that APCE lacks the first 23 residues of FAP; also called α2-antiplasmin cleaving enzyme; APCE/FAP
T1 sequence: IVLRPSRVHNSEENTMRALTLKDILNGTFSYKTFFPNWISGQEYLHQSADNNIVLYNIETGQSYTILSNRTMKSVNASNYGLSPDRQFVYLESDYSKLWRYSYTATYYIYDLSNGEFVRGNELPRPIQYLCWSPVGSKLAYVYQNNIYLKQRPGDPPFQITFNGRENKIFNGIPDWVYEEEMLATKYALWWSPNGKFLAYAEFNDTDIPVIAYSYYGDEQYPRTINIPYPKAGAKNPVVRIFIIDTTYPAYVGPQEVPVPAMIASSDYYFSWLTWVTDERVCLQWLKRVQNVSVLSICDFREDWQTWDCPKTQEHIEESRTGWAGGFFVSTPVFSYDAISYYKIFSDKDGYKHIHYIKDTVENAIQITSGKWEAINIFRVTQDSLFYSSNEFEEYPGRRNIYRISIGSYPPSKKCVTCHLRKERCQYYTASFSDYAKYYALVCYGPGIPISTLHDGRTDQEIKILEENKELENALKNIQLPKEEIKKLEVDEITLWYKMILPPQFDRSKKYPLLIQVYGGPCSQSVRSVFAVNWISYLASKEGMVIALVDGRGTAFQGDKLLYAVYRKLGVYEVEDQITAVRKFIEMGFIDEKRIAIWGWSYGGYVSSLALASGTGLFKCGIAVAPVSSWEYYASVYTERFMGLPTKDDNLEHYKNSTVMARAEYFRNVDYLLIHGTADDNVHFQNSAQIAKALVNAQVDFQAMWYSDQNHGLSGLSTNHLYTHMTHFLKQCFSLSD
Put plainly: inhibition of APCE activity, AMC fluorogenic substrate.

Experiment [3] deals with dipeptidyl peptidase IV (DPPIV). Put plainly: inhibition of DPPIV activity, AMC fluorogenic substrate.
For experiment [4], the target named is T1, antiplasmin-cleaving enzyme (APCE). The experiment is described as follows: inhibition of APCE activity, AMC fluorogenic substrate, competitive fit. How it is done:
Enzyme assays. APCE or DDPIV was incubated in 25 mM sodium phosphate buffer, pH 7.5, containing 1.0 mM EDTA and 4% methanol in a total volume of 200 μl for 20 min at 22° C., using fluorescent substrates […]-AMC (SEQ ID NO.:4) (12.5-100 μM); […]-AMC (SEQ ID NO.:5) (12.5-100 μM); Z-Gly-Pro-AMC (25-200 μM); or GP-AMC (62.5-1000 μM). […] Fluorescence was monitored with time at excitation and emission wavelengths of 360 and 460 nm using a black-sided, 96-well plate in a BIO-TEK FL600 fluorescence plate reader. For standard curves, dilutions of AMC (7-amino-4-methylcoumarin) were prepared in the same assay buffer and corresponding fluorescence was measured. The substrates in five different concentrations were mixed with four different concentrations of inhibitors around the expected Ki values; the enzyme was added and enzymatically released AMC fluorescence was recorded. Competitive inhibition was established by Lineweaver-Burk plot. Therefore, enzyme kinetic parameters were computed by fitting data to the following equation, employing the program PRISM, GraphPad: […]

Where no end group is shown, it is not given here. [ ]: non-standard residue; d: D form. Pip = O=C(O)[C@@H]1CCCCN1; AEEA = NCCOCCOCC(=O)O

Sequence of dipeptidyl peptidase IV (DPPIV) (P27487 29-766): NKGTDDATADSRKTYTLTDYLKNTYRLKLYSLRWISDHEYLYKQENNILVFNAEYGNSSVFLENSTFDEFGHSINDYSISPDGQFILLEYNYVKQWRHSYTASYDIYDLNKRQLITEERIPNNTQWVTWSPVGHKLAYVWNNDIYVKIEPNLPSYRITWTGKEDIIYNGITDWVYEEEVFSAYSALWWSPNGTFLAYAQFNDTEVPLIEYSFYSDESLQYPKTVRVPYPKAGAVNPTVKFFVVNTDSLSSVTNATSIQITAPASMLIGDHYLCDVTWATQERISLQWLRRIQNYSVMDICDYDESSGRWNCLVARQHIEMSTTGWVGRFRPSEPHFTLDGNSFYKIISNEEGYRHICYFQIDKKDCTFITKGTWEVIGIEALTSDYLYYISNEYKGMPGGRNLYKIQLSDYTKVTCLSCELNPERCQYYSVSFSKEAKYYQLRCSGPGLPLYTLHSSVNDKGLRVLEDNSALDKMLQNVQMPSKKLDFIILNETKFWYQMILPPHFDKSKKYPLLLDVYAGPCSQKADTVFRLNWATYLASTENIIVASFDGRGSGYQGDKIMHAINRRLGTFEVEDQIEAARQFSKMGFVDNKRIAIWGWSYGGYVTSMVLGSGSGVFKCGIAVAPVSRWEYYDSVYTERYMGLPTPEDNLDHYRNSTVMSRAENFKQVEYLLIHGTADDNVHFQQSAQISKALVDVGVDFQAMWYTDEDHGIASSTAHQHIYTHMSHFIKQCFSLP

Take “Ac-Arg-(8-amino-3,6-dioxaoctanoyl)-D-Ala-L-boroPro (peptide)”: the Selectivity, Ki (DPPIV)/Ki (APCE/FAP) in experiment [1] came out at 1080. In addition, the Ki (commonly the equilibrium dissociation constant of an inhibitor or competing ligand from its target) in experiment [2] was found to be 5.7 nM; in experiment [3], 6130 nM.

On to Ac-Arg-Gly-Gly-DL-boroPro (peptide), for which, in experiment [1], the Selectivity, Ki (DPPIV)/Ki (APCE/FAP) was determined as 14.9. Also, the Ki was found to be 22.9 nM in experiment [2] and 341 nM in experiment [3].

Ac-Arg-Gly-Gly-L-boroPro (peptide): the Selectivity, Ki (DPPIV)/Ki (APCE/FAP) in experiment [1] is 18.7. Moreover, the Ki was found to be 17.2 nM in experiment [2] and 322 nM in experiment [3].

For the molecule Ac-Arg-peg-D-Ala-D-boroPro (peptide), the Selectivity, Ki (DPPIV)/Ki (APCE/FAP) in experiment [1] came out at 108. The Ki in experiment [2] is 189 nM; in experiment [3], 20500 nM.

Turning to “Ac-Arg-peg-D-Ala-DL(25:75%)-boroPro (peptide)”, the Ki in experiment [2] stood at 7.7 nM.

Turning to “Ac-Arg-peg-D-Ala-DL(50:50%)-boroPro (peptide)”, the Selectivity, Ki (DPPIV)/Ki (APCE/FAP) in experiment [1] was determined as 1180. Moreover, the Ki in experiment [2] came to 9.5 nM; in experiment [3] it was 11200 nM.

Turning to “Ac-Arg-peg-D-Ala-DL(75:25%)-boroPro (peptide)”, the Ki in experiment [2] amounted to 18.3 nM.

As for Ac-Arg-peg-D-Asp-L-boroPro (peptide), the Selectivity, Ki (DPPIV)/Ki (APCE/FAP) in experiment [1] worked out at 5.2. The values for the Ki in experiment [2] and in experiment [3] were 1380 nM and 7130 nM, respectively.

Turning to Ac-Arg-peg-Gly-DL-boroPro (peptide), the Selectivity, Ki (DPPIV)/Ki (APCE/FAP) in experiment [1] is 371. For the same molecule, the Ki in experiment [2] was determined as 3.1 nM; in experiment [3] it was 1150 nM.

Consider Ac-Arg-peg-Gly-L-boroPro (peptide), for which the Selectivity, Ki (DPPIV)/Ki (APCE/FAP) in experiment [1] worked out at 244. For the same molecule, the Ki came out at 1.8 nM in experiment [2] and 440 nM in experiment [3].

In the case of Ac-Arg-peg-Ser-Gly-L-boroPro (peptide), in experiment [1], the Selectivity, Ki (DPPIV)/Ki (APCE/FAP) turned out to be 319. Further, the values for the Ki in experiment [2] and in experiment [3] were 2.7 nM and 861 nM, respectively.

On to Ac-Gly-L-boroPro (peptide), for which the Selectivity, Ki (DPPIV)/Ki (APCE/FAP) in experiment [1] was 15.2. Besides, the Ki in experiment [2] came out at 20.7 nM; in experiment [3], 314 nM.

Molecule FG-peg-G-pyrrolidide (peptide) had a Ki in experiment [4] of 703000 nM.

Take FR-peg-G-[r]fluoropyrrolidide (peptide): the Ki in experiment [4] worked out at 53800 nM.

Take FR-peg-G-[s]fluoropyrrolidide (peptide): in experiment [4], the Ki amounted to 55300 nM.

FR-peg-G-piperidide (peptide): the Ki in experiment [4] came to 264000 nM.

Regarding FR-peg-G-pyrrolidide (peptide), the Ki in experiment [4] came to 67700 nM.

B1: FR-peg-G-pipecolinyl-NQEQV (peptide)
peptide: FR[AEEA]G[Pip]NQEQV-OH
modifications: N-terminus assumed
SMILES: CC(C)[C@H](NC(=O)[C@H](CCC(N)=O)NC(=O)[C@H](CCC(=O)O)NC(=O)[C@H](CCC(N)=O)NC(=O)[C@H](CC(N)=O)NC(=O)[C@@H]1CCCCN1C(=O)CNC(=O)COCCOCCNC(=O)[C@H](CCCNC(=N)N)NC(=O)[C@@H](N)Cc1ccccc1)C(=O)O
Consider B1, for which, in experiment [4], affinity was put at a Ki of 14800 nM.

B2: FG-peg-G-pipecolinyl-NQEQV (peptide)
peptide: FG[AEEA]G[Pip]NQEQV-OH
modifications: N-terminus assumed
SMILES: CC(C)[C@H](NC(=O)[C@H](CCC(N)=O)NC(=O)[C@H](CCC(=O)O)NC(=O)[C@H](CCC(N)=O)NC(=O)[C@H](CC(N)=O)NC(=O)[C@@H]1CCCCN1C(=O)CNC(=O)COCCOCCNC(=O)CNC(=O)[C@@H](N)Cc1ccccc1)C(=O)O
Turning to B2, the inhibition constant (Ki) in experiment [4] stood at 57100 nM.

B3: FR-peg-G-pipecolinyl-NQGQV (peptide)
peptide: FR[AEEA]G[Pip]NQGQV-OH
modifications: N-terminus assumed
SMILES: CC(C)[C@H](NC(=O)[C@H](CCC(N)=O)NC(=O)CNC(=O)[C@H](CCC(N)=O)NC(=O)[C@H](CC(N)=O)NC(=O)[C@@H]1CCCCN1C(=O)CNC(=O)COCCOCCNC(=O)[C@H](CCCNC(=N)N)NC(=O)[C@@H](N)Cc1ccccc1)C(=O)O
Take B3: the Ki in experiment [4] was 14500 nM.

B4: FRQLTS-G pipecolinyl-NQEQV (peptide)
peptide: FRQLTSG[Pip]NQEQV-OH
modifications: N-terminus assumed
SMILES: CC(C)C[C@H](NC(=O)[C@H](CCC(N)=O)NC(=O)[C@H](CCCNC(=N)N)NC(=O)[C@@H](N)Cc1ccccc1)C(=O)N[C@H](C(=O)N[C@@H](CO)C(=O)NCC(=O)N1CCCC[C@H]1C(=O)N[C@@H](CC(N)=O)C(=O)N[C@@H](CCC(N)=O)C(=O)N[C@@H](CCC(=O)O)C(=O)N[C@@H](CCC(N)=O)C(=O)N[C@H](C(=O)O)C(C)C)[C@@H](C)O
As to B4, in experiment [4], the Ki amounted to 14000 nM.
